In the nanobody polyreactivity screen of Harvey et al. (2022):

Assay: yeast display, Sf9 membrane polyspecificity reagent, FACS + sequencing; frameworks hold sequencing errors
Method in brief: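 Sorting gates, low and high (top ~1%), were placed on anti-HA fluorescence to track expression and on streptavidin fluorescence to track reagent binding. A clone's polyreactivity label is taken from the gate it came out of. The reagent was 10% biotinylated, detergent-solubilized Sf9 membrane, applied for 1 hour at 4 °C to galactose-induced yeast display cells.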

Sequence	polyreactivity (PSR sort gate)
QVQLVESGGGLVQAGGSLRLSCAASGSIFDPYAMGWYRQAPGKERELVAAITSDGSTNYADSVKGRFTISRDNAKNTVYLQMNSLKPEDTAVYYCAKHQFGRYVVLYPRGHWFDYWGQGTQVTVSS	low polyreactivity
QVQLVESGGGLVQAGGSLRLSCAASGSIFDPYGMGWYRQAPGKERELVAAISSSDGSTYYADSVKGRFTISRDNAKNTVYLQMNSLKPEDTAVYFCAAETYGTNSSNTVYRWKYDYWGQGTQVTVSS	low polyreactivity
QVQLVESGGGLVQAGGSLRLSCAASGSIFDQYAMGWYRPAPGKERELVAAIDTSGGSTYYADSVKGRFTISRDNAKNTVYLQMNSLKPEDTAVYYCNAGGDGDILTTEMDYWGPGTQVTVSS	low polyreactivity
QVQLVESGGGLVQAGGSLRLSCAASGSIFDRNAMGWYRQAPGKERELVAAISRSSGNTYYADSVKGRFTISRDNAKNTVYLQMNSLKPEDTAVYYCNKVDYWGQGTQVTVSS	high polyreactivity
QVQLVESGGGLVQAGGSLRLSCAASGSIFDRYAMGWYIQAPGKERELVASITWRATSTYYADSVKGRFTISRDNAKNTVYLQMNSLKPEDTAVYYCAADVPWGWWDSDFSDNYYWGQGTQVTVSS	low polyreactivity
QVQLVESGGGLVQAGGSLRLSCAASGSIFDSNAMGWYRQAPGKERELVADIRGIGGSTYYADSVKGRFTISRDNAKNTVYLQMNSLKPEDTAVYYCNTSTLGGYYWGQGTQVTVSS	low polyreactivity
QVQLVESGGGLVQAGGSLRLSCAASGSIFDSNAMGWYRQAPRQERELVAAISSGGNTNYADSVKGRFTISRDNAKNTVYLQMNSLKPDDTAVYYCARDTQLPHFYGRVSEYDYWGQGTQVTVSA	low polyreactivity
QVQLVESGGGLVQAGGSLRLSCAASGSIFDSYAMGWSRQAPGKERELVAAITWSGGITFYADSVKGRFTISRDNAKNTVYLQMNSLKPEDTAVYYCATARSYVGVGGTFVGLYDYWGQCTQVTVSS	low polyreactivity
QVQLVESGGGLVQAGGSLRLSCAASGSIFDSYAMGWYRQAPGKDRELVAAISGNSDSTYYADSVKGRFTISRDNATNTVYSQMNSLKAEDTAVYNCNARGRLPYLEFYYWGQGTQVTVSS	low polyreactivity
QVQLVESGGGLVQAGGSLRLSCAASGSIFDSYTMAWYRQEPGKEREFVAAISRGGGSTYYADSVKGRFTISRDNAKNTVYLQMNSLKPEDTAVYYCAASSYLNSRFKFDYWGQGTQVTVSS	low polyreactivity
QVQLVESGGGLVQAGGSLRLSCAASGSIFDVNAMGCARQAPGNERELVAGISWSGGSTYYADSVKGRFTISRDNAKNTVYLQMNSLKPEDTAVYYCNAEGPIYFYFYRGMDYWGQGTQVTVSS	low polyreactivity
QVQLVESGGGLVQAGGSLRLSCAASGSIFDVNAMGWYRQAPGKERELVAAISDSGGSTYYADSVKGRFTISRDNAKNTVYLQMNSLKPEDSAVYYCNADWSWYNYYDFDYWGQGTQVTVSS	low polyreactivity
QVQLVESGGGLVQAGGSLRLSCAASGSIFDVNAMGWYRQAPGKERELVASIDNSGTTNYADSVKGRFTISRDNAKNTVYLHMNSLKPEDTAVYYCAKDASLEYSRWGGDYWGQGTQVTVSS	low polyreactivity
QVQLVESGGGLVQAGGSLRLSCAASGSIFDVNTMGSYRQAPGKETELGASITSSGSTYYADSVKGRFTISRDNAKNTVYLQMNSLKPEDTAVYYCAATPIGQHFTLDYWGQGTQVTVSS	low polyreactivity
QVQLVESGGGLVQAGGSLRLSCAASGSIFDVYAMGWYRLAPGKERELVAAINWTGGSTYYADSVKGRFTISRDNAKNTVYLQMNSLKPEDTAVYYCAASYYYGTEHYDYWGQGTQVTVSS	low polyreactivity
QVQLVESGGGLVQAGGSLRLSCAASGSIFDVYAMGWYRQAPGKERELVAAITWRGGSTYYADSVKGRFTISRDNAKNTVYLQMNSLKPEDTAVYYCAAVYQSRLWDRYYYWGQGTQVTVSS	high polyreactivity

Sequence	polyreactivity (PSR sort gate)
QVQLVESGGGLVQAGGSLRLSCAASGSIFDVYTMGWYRQAPGKDRELVAAINTGGGSTYYADSVKGRFTISRDNAKNTVYLQMNSLKPEDTAVYYCARSRYREWGQGTQVTVSS	low polyreactivity
QVQLVESGGGLVQAGGSLRLSCAASGSIFDVYTRGWYRQAPGKQRELVAAINTGGGSTYYADSEKGRFTISRDIAKNTVYLQMNSLKPEDTAVYYCAASVYHYGPLYYWGQVTQVTVSS	low polyreactivity
QVQLVESGGGLVQAGGSLRLSCAASGSIFDWYAMGWYRQAPGKEGELVAAISSGDSTYYADSVKGRFTISRDNAKNTVYLQMNSLKPEDTAVYYGAAVTKLSGIRYNYWGQGTQVTVSS	low polyreactivity
QVQLVESGGGLVQAGGSLRLSCAASGSIFDYNAMGWYIQAPGKEREFVAAITYSGGSTYYADSVKGRFTISRDNAKYTVYLQMYSLKPEDSAVYYCGADYFQHVPKYGYCGQGTQVTVSS	low polyreactivity
QVQLVESGGGLVQAGGSLRLSCAASGSIFDYYAMGWYRQAPGKERELVAAIDSGDITYYADSVKGRFTISRDNAMNTVYLQMNSLKPEETAVYYCAAEGTGYSVGWQYGYWGQGTQVTVSS	low polyreactivity
QVQLVESGGGLVQAGGSLRLSCAASGSIFDYYAMGWYRQAPGKERELVAAIRRIGGITYYADSVKGRFTISRDNAKNTVYLQMNSLKPEDTAVYYCNVLVKHSTTTYSTYDYWGQGTQVTVSS	high polyreactivity
QVQLVESGGGLVQAGGSLRLSCAASGSIFDYYAMGWYRQAPGKERELVAAISGTGGSTYYADSVKGRFTISRDNAKNTVYLQMNSLKPEDTAVYYCNAGRHILTALRNDGTFDYWGQGTQVTVSS	high polyreactivity
QVQLVESGGGLVQAGGSLRLSCAASGSIFDYYTMGWYRQAPGKEREFVAGISDSGGSTNYADSVKGRFTISRDNAKNTVYLQMNSLKPEDTAVYYCNAEYVGWFYKYDYWGQGTQVTVSS	high polyreactivity
QVQLVESGGGLVQAGGSLRLSCAASGSIFEFYAMGWYRQAPGKERELVAAITSDGGSTYYADSVKGRFTISRDNAKNTVYLQMNSLKPEDTAVYYCAKDPYALPAQINDYWGQGTQVTVSS	high polyreactivity
QVQLVESGGGLVQAGGSLRLSCAASGSIFEGYGMGWYRQAPGKERELVASISTGDSTKYADSVKGRFTISRDNAKNTVYLQMNSLKPEDTAVYYCNAPYFYLPHKYDYWGQGTQVTVSS	low polyreactivity
QVQLVESGGGLVQAGGSLRLSCAASGSIFELNAMGWSRQAPGKERELVAAITSSGSSTYYADSVKGRFTISRDNAKNTVYLQMNSLKPEDTAVYYCARDAFEPYDVGEYYYWGQGTQVTVSS	low polyreactivity
QVQLVESGGGLVQAGGSLRLSCAASGSIFELNAMGWYRQAPGKEMELVAAIRWRTGRTYYADSVKGRFTISRDNAKNTVYLLMNSLKPEDTAVYYCNADVTSLTRVHGRFIVSDYDYWGQGTQVTVSS	low polyreactivity
QVQLVESGGGLVQAGGSLRLSCAASGSIFEQNAMGWYRQAPGKERELVAGINEGGGSTYYADSVKGRFTISRDNAKNTVYLQMNSLKPEDTAVYYCAATLGSRWAIYDYWGQGTQVTVSS	high polyreactivity
QVQLVESGGGLVQAGGSLRLSCAASGSIFEQYAMGWYRKAPGKERELVAAISSGGSTNYADSVKGRFTISRDNAKNTVYLQMNSLKPEDTAVYYCAAAYYTVGWLYYDYWYPFAYYYWGQGTQVTVSS	low polyreactivity
QVQLVESGGGLVQAGGSLRLSCAASGSIFEQYPMGWYRQAPGKERELVAAISRRSGRTYYADSVKGRFTISRDNAKHTVYLQMHSLIPEDTAVYYCAASGIYFVQYNSWGQGTHVTVSS	high polyreactivity
